US20070026510A1, “Process for biochemical production of glyoxylic acid” (Kaneka Corporation, priority 2003, published 2007)

How the values were obtained:
[1] = Oxidase activity to glyoxylic acid (H2O2 detection with 4-AA/TOOS/POD, absorbance 555 nm); assay type: biochemical; settings: substrate glyoxylic acid, relative to glyoxal = 100; enzymes of the invention
Procedure: (§1) The cell-free extract of each of KNK235 and KNK058 obtained by the method described in Example 1 was charged to a Resource Q column (6 ml) that had previously been equilibrated with a 0.05 M phosphate buffer (pH 7), and the enzyme was eluted with a linear concentration gradient of sodium chloride from 0 to 0.5 M, so as to collect active fractions. Roughly purified enzyme solutions of these KNK235 and KNK058 and purified enzymes obtained from Streptomyces sp. KNK269, Microbacterium sp. KNK011, and Cellulosimicrobium cellulans IFO 15516, obtained in Examples 4, 5, and 7, respectively, were measured in terms of their oxidase activity to glyoxal and to glyoxylic acid. Measurement of the enzyme activity was carried out by the following method. That is, 1.0 ml of a reaction solution comprising 10 mM glyoxal or glyoxylic acid, 0.67 mM 4-AA, 1.09 mM TOOS, 2 U/ml POD, and a roughly purified enzyme from KNK235 or KNK058, or a purified enzyme obtained from NKN269, KNK011, or IFO 15516 in Example 4, 5, or 7, was reacted at 30° C. in a 100 mM phosphate buffer (pH 7). Thereafter, an increase in the absorbance at a wavelength of 555 nm was measured.

[2] = Conversion of glyoxal into glyoxylic acid by purified enzymes, HPLC; assay type: biochemical; settings: 0.2 U/ml enzyme, 50 mM glyoxal, 5,000 U/ml catalase, 100 mM Tris-HCl, 30° C., 3 hours
Procedure: Each of the enzymes derived from Streptomyces sp. KNK269, Microbacterium sp. KNK011, Pseudomonas sp. KNK058, and Cellulosimicrobium cellulans IFO 15516, which were obtained in Examples 4, 5, 6, and 7, respectively, was reacted using glyoxal as a substrate. That is, 1 ml of 100 mM Tris-HCl buffer comprising 0.2 U/ml enzyme derived from each of the above strains, 50 mM glyoxal, and 5,000 U/ml catalase, were placed in a test tube. It was then subjected to a shake reaction at 30° C. for 3 hours. After completion of the reaction, the reaction solution was analyzed by high performance liquid chromatography.

[3] = Oxidase activity to glyoxal (H2O2 detection with 4-AA/TOOS/POD, absorbance 555 nm); assay type: biochemical; settings: for Activity to glyoxal/activity to glyoxylic acid: 10 mM substrate, 30° C., 100 mM phosphate buffer pH 7; for Relative activity (%): substrate glyoxal (reference = 100), enzymes of the invention
Procedure: When the reaction is catalyzed by oxidase, not only glyoxylic acid but also hydrogen peroxide is produced. Oxidase activity of interest can easily be detected by detecting such hydrogen peroxide.
Specifically, 0.1 ml of cell suspension or enzyme solution is added to 0.9 ml of a 100 mM phosphate buffer (pH 7) having the composition indicated below, and an increase in the absorbance at a wavelength of 555 nm is measured at 30° C. In the present invention, enzyme activity for generating 1 μmol H2O2 per minute is defined as 1 unit.
as §1

[4] = Heat stability of purified enzyme (remaining activity); assay type: physicochemical; settings: 0.05 M phosphate buffer pH 7.2, 20 minutes, treatment at 70° C. (FIG. 3)
Procedure: as §1, with “measured. […]” for “measured.”
The present enzyme was treated in a 0.05 M phosphate buffer (pH 7.2) at each temperature from 30° C. to 70° C. for 20 minutes. Thereafter, the remaining activity of the present enzyme was measured using glyoxal as a substrate.

| Molecule | Relative activity (%) [1] [%] | glyoxylic acid generated [2] [mM] | Activity to glyoxal/activity to glyoxylic acid [3] | Relative activity (%) [3] [%] | remaining activity after heat treatment [4] [%] |
| --- | --- | --- | --- | --- | --- |
| IFO15516-derived enzyme: aldehyde oxidase purified from culture supernatant of Cellulosimicrobium cellulans IFO 15516; SEQ ID NOS: 11 and 12 | 1 | 26 | 100 | 100 | – |
| KNK011-derived enzyme: aldehyde oxidase purified from Microbacterium sp. KNK011; SEQ ID NOS: 7 and 8 | 0.5 | 25 | 183 | 100 | – |
| KNK269-derived enzyme: aldehyde oxidase purified from Streptomyces sp. KNK269; three subunits, SEQ ID NOS: 1 to 3 (protein, Streptomyces sp. KNK269; amino acid sequence of subunit gamma of aldehyde oxidase; amino acid sequence of subunit beta of aldehyde oxidase; amino acid sequence of subunit alpha of aldehyde oxidase) chain 1: GADLEPEPVVDEHSTVTLNVNGDPTTLTVDHRTTVLETLRESFGLTGAKKGCDHGQCGACTVLVDGRRVNSCLLLAVAQDGATITTVEGLADGEDLHPVQRAFVERDALQCGFCTPGQICSAVGMLREAADGHPSHVTGPDTAAGPDAATGPGGPVALDADEIRERMSGNIFRCGAYHRIVEAIEDVIE chain 2: MKPFGYVRPASPDEAVRLCAEGSGARFLGGGTNLVDLMKLGVEAPRVLIDVAGLPLDRVTRTADGGLAIGATVRNSDLAAHPDVTDRYPVLSQALLAGASGQLRNSATTGGNLLQRTRCRYFQDVSKPCNKRLPGSGCPARDGTHRDLAILGHSPECVATNPSDMAVALAALDATVVLLGPEGERAVPLTEFHRLPGENPDQDTAIRTGELITEVVLPPPAPGAATRYRKARDRASFAFALVSVAATLRVDAGRVEHATLAFGGVAHRPWRARRAEAELRGAPATPAVFQHALIAELAEARPLRDNVFKVDLARRLALDVLGELTERQPTRTG chain 3: MTTRAPQFPGAPVVRREARDKVTGTARYAADRTPAGCLYAWTVPAAVAAGRVTAVRAVDALAVPGVHTVLTHDNAPELREPDDPILAVLQDDRVPHHGWPIALVIAESPEAARTGAGELHVEYARDEHDVTLTEDHPGLYTPEEANGGEPAVRVRGDVERALAASPVQVDATYRMVALHNHPMEPHAATAVRADGHLTVHDSSQGSTKVRESLAQAFGLAADRITVVSEHVGGGFGSKGTTRPQGVLAAMAAQHTGRPVKLVFPRAQLAEVVGHRAPTIQRVRLGADLDGVLTAVSHEVVTQTSTVKEFVEQAAVPARVMYASPHSRTAHRVTALDVPSPSWMRAPGEASGMYALESAMDVLDSALGLDPVELRLRNEPETEPDSGRPFSSRGLAACLRDGAARFGWQDRDPRPAARQEGRWLIGTGVASATYPVLLSRSTASAHATRDGDLSIAVNATDIGTGARTVLAQIAADVLGVAPEALRVDIGSTDLPAAPLAGGSSGTASWGWSVHKAATALAARLAEHRGPLPADGITTTADTGQETGEESPYARHAFGAHFAETAVDAVTGEVRVRRLLGVYAAGRILNERTARSQFTGGMVMGIGMALTEGCGIDPGFGDFTAKDLASYHVPVCADTADIQAHWIEEDDRHLNPMGSKGIGEIGIVGTAAAIGNAVRHATGARLRELPLTTDT | 0.1 | 7.6 | 1,710 | 100 | ≥ 90 |
